Here are results for 1 molecule from patent US20240150495A1 (F STAR BIOTECHNOLOGISCHE FORSCHUNGS UND ENTWICKLUNGSGES M B …, published 2024).

In the test the target is T1, Fcab-wt (human, UniProt P01857-1 99-330 = IgG part).
T1 construct: Negative control
Briefly: ELISA on coated human ανβ3 integrin, HRP labelled protein A.

Procedure: For the integrin ELISA, 1 ug/ml human ανβ3 integrin in PBS was coated over night on Maxisorp plates and blocked for 1 h with BSA in PBS containing 1 mM Ca2+. […] Bound Fcabs were detected by HRP labelled protein A and TMB as a substrate.

B1: human ανβ3 integrin (Chemicon) (receptor)
chain 1: FNLDVDSPAEYSGPEGSYFGFAVDFFVPSASSRMFLLVGAPKANTTQPGIVEGGQVLKCDWSSTRRCQPIEFDATGNRDYAKDDPLEFKSHQWFGASVRSKQDKILACAPLYHWRTEMKQEREPVGTCFLQDGTKTVEYAPCRSQDIDADGQGFCQGGFSIDFTKADRVLLGGPGSFYWQGQLISDQVAEIVSKYDPNVYSIKYNNQLATRTAQAIFDDSYLGYSVAVGDFNGDGIDDFVSGVPRAARTLGMVYIYDGKNMSSLYNFTGEQMAAYFGFSVAATDINGDDYADVFIGAPLFMDRGSDGKLQEVGQVSVSLQRASGDFQTTKLNGFEVFARFGSAIAPLGDLDQDGFNDIAIAAPYGGEDKKGIVYIFNGRSTGLNAVPSQILEGQWAARSMPPSFGYSMKGATDIDKNGYPDLIVGAFGVDRAILYRARPVITVNAGLEVYPSILNQDNKTCSLPGTALKVSCFNVRFCLKADGKGVLPRKLNFQVELLLDKLKQKGAIRRALFLYSRSPSHSKNMTISRGGLMQCEELIAYLRDESEFRDKLTPITIFMEYRLDYRTAADTTGLQPILNQFTPANISRQAHILLDCGEDNVCKPKLEVSVDSDQKKIYIGDDNPLTLIVKAQNQGEGAYEAELIVSIPLQADFIGVVRNNEALARLSCAFKTENQTRQVVCDLGNPMKAGTQLLAGLRFSVHQQSEMDTSVKFDLQIQSSNLFDKVSPVVSHKVDLAVLAAVEIRGVSSPDHVFLPIPNWEHKENPETEEDVGPVVQHIYELRNNGPSSFSKAMLHLQWPYKYNNNTLLYILHYDIDGPMNCTSDMEINPLRIKISSLQTTEKNDTVAGQGERDHLITKRDLALSEGDIHTLGCGVAQCLKIVCQVGRLDRGKSAILYVKSLLWTETFMNKENQNHSYSLKSSASFNVIEFPYKNLPIEDITNSTLVTTNVTWGIQPAPMPVPVWVIILAVLAGLLLLAVLVFVMYRMGFFKRVRPPQEEQEREQLQPHENGEGNSET
chain 2: GPNICTTRGVSSCQQCLAVSPMCAWCSDEALPLGSPRCDLKENLLKDNCAPESIEFPVSEARVLEDRPLSDKGSGDSSQVTQVSPQRIALRLRPDDSKNFSIQVRQVEDYPVDIYYLMDLSYSMKDDLWSIQNLGTKLATQMRKLTSNLRIGFGAFVDKPVSPYMYISPPEALENPCYDMKTTCLPMFGYKHVLTLTDQVTRFNEEVKKQSVSRNRDAPEGGFDAIMQATVCDEKIGWRNDASHLLVFTTDAKTHIALDGRLAGIVQPNDGQCHVGSDNHYSASTTMDYPSLGLMTEKLSQKNINLIFAVTENVVNLYQNYSELIPGTTVGVLSMDSSNVLQLIVDAYGKIRSKVELEVRDLPEELSLSFNATCLNNEVIPGLKSCMGLKIGDTVSFSIEAKVRGCPQEKEKSFTIKPVGFKDSLIVQVTFDCDCACQAQAEPNSHRCNNGNGTFECGVCRCGPGWLGSQCECSEEDYRPSQQDECSPREGQPVCSQRGECLCGQCVCHSSDFGKITGKYCECDDFSCVRYKGEMCSGHGQCSCGDCLCDSDWTGYYCNCTTRTDTCMSSNGLLCSGRGKCECGSCVCIQPGSYGDTCEKCPTCPDACTFKKECVECKKFDRGALHDENTCNRYCRDEIESVKELKDTGKDAVNCTYKNEDDCVVRFQYYEDSSGKSILYVVEEPECPKGPDILVVLLSVMGAILLIGLAALLIWKLLITIHDRKEFAKFEEERARAKWDTANNPLYKEATSTFTNITYRGT
notes: Bought from Chemicon; coated at 1 ug/ml on Maxisorp plates; also called alpha-v beta-3 integrin
For B1, the binding result is on record as “no binding (tested: 10 ug/ml)”.
